Source: article PMC5076501

Legend:
calnexin, P27824 = target: T1, calnexin, P27824; assay: co-immunoprecipitation (anti-GFP IP) with immunoblot densitometry; conditions: chain shown with the change; detergent lysates from stably transfected HEK293 cells; three independent experiments; parent: est. 0.73; read off a plot
T1 chain: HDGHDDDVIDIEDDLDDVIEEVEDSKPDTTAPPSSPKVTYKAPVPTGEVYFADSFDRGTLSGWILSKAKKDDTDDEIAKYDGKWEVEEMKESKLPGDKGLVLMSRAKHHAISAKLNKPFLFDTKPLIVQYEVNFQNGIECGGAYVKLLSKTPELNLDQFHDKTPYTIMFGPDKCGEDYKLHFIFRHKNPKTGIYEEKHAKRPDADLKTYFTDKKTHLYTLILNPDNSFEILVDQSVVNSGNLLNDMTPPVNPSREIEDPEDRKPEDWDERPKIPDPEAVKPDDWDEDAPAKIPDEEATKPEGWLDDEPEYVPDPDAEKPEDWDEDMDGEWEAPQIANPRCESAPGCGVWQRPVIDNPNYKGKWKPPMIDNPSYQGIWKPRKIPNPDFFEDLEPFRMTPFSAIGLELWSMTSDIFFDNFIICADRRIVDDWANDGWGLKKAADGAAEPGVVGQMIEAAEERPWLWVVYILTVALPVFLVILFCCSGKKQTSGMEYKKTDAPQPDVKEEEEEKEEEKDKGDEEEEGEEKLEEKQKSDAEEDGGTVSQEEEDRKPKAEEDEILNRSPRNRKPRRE

HSP70-1A, P0DMV8 = assay: as above; conditions: chain shown with the change; detergent lysates from stably transfected HEK293 cells; three independent experiments; parent: est. 0.32; read off a plot
Chain of HSP70-1A, P0DMV8 (P0DMV8 whole entry): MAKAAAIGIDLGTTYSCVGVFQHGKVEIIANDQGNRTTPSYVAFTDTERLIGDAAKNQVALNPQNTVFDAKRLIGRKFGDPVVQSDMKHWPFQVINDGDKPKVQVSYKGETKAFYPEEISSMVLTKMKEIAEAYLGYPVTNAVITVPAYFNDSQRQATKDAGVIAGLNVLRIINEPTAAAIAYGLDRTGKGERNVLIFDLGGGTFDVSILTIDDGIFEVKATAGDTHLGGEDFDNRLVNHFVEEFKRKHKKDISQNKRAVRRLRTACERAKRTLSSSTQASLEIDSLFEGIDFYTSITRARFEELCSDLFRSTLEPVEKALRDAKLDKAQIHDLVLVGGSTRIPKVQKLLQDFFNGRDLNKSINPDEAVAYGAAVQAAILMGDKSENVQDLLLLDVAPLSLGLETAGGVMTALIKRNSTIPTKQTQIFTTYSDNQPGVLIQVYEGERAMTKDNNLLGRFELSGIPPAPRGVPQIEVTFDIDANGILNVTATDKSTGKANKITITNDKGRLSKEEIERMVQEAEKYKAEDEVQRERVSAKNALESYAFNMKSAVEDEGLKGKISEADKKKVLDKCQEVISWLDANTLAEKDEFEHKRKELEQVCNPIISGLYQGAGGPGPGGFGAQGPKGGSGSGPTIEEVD

B1: YFP-tagged wild-type Drosophila melanogaster dopamine transporter, Q7K4Y6 G108Q (protein)
chain: MSPTGHISKSKTPTPHDNDNNSISDERETWSGKVDFLLSVIGFAVDLANVWRFPYLCYKNGGGAFLVPYGIMLVVGGIPLFYMELALGQHNRKGAITCWGRLVPLFKQIGYAVVLIAFYVDFYYNVIIAWSLRFFFASFTNSLPWTSCNNIWNTPNCRPFESQNASRVPVIGNYSDLYAMGNQSLLYNETYMNGSSLDTSAVGHVEGFQSAASEYFNRYILELNRSEGIHDLGAIKWDMALCLLIVYLICYFSLWKGISTSGKVVWFTALFPYAVLLILLIRGLTLPGSFLGIQYYLTPNFSAIYKAEVWVDAATQVFFSLGPGFGVLLAYASYNKYHNNVYKDALLTSFINSATSFIAGFVIFSVLGYMAHTLGVRIEDVATEGPGLVFVVYPAAIATMPASTFWALIFFMMLLTLGLDSSFGGSEAIITALSDEFPKIKRNRELFVAGLFSLYFVVGLASCTQGGFYFFHLLDRYAAGYSILVAVFFEAIAVSWIYGTNRFSEDIRDMIGFPPGRYWQVCWRFVAPIFLLFITVYGLIGYEPLTYADYVYPSWANALGWCIAGSSVVMIPAVAIFKLLSTPGSLRQRFTILTTPWRDQQSMAMVLNGVTTEVTVVRLTDTETAKEPVDV
Binder B1 has a response (integrated density (chaperones/DAT)) (calnexin, P27824) of 1.7 and a response (integrated density (chaperones/DAT)) (HSP70-1A, P0DMV8) of 0.73.
